Measured values from patent publication US20240294632A1 (XL PROTEIN, published 2024).

Legend:
P/A #1(600) polypeptide = target: T1, P/A #1(600) polypeptide; assay: ELISA, antigen coated, Fab titrated
T1 chain: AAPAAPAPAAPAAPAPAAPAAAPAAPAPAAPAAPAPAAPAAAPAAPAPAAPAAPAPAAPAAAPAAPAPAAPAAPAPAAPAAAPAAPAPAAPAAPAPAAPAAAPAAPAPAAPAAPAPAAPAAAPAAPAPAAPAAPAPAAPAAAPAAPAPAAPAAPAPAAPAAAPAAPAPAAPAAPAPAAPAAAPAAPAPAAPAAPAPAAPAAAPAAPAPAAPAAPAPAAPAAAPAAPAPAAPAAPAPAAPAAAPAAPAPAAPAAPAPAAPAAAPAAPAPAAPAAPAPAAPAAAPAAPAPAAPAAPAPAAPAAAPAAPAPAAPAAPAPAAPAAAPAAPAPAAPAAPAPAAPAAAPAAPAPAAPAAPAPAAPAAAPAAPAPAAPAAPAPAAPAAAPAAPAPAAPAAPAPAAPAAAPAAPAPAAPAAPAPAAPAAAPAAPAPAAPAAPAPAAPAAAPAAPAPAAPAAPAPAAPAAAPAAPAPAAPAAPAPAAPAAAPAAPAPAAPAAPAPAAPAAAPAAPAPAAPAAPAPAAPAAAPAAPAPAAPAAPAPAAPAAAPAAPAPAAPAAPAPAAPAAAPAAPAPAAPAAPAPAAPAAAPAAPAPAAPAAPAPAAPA

PAS #1(600)-Leptin [1] = target: T2, PAS #1(600)-Leptin; assay: ELISA, antigen coated, Fab titrated
T2 chain: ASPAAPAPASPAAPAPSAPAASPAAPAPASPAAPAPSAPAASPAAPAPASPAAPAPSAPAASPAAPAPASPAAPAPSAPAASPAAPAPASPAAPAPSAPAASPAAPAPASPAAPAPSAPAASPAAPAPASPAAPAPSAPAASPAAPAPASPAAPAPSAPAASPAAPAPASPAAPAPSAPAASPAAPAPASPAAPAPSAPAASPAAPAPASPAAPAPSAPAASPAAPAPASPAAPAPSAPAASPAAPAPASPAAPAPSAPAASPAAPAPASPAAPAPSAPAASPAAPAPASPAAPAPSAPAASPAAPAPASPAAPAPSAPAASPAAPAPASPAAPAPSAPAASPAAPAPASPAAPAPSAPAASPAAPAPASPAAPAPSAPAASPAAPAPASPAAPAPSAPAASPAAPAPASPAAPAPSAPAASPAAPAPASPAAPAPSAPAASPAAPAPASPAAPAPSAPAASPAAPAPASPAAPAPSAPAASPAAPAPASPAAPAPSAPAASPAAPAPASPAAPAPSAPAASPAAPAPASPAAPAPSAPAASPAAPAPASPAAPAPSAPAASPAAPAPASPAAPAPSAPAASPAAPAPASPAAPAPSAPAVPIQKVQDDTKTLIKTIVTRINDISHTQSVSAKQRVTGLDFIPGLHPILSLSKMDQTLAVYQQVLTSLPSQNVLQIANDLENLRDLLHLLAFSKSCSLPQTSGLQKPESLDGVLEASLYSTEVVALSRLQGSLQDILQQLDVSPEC

P/A #1(200)-IL1Ra [2] = target: T3, P/A #1(200)-IL1Ra; assay: SPR, biotinylated antigen on CAPture chip, Fab as analyte, 1:1 model
T3 construct: PASylated fusion protein produced in E. coli; Biotinylated for the SPR measurements with Fabs

PAS #1(200)-IL1Ra [3] = target: T4, PAS #1(200)-IL1Ra; assay: as above
T4 construct: PASylated fusion protein produced in E. coli; Biotinylated for the SPR measurements with Fabs

IL1Ra-PAS#1(800) = assay: ELISA, Fab titrated on IL1Ra-PAS#1(800) (x axis: Fab concentration)
P/A#1(600)-GMCSF = assay: ELISA, Fab titrated on P/A#1(600)-GMCSF (x axis: Fab concentration)
PAS #1(600)-Leptin [4] = target: T2, PAS #1(600)-Leptin; assay: ELISA, Fab titrated on PAS#1(600)-Leptin (x axis: Fab concentration)
IL1Ra (Kineret/Anakinra) = target: T5, IL1Ra (Kineret/Anakinra) (UniProt P18510 26-177); assay: western blot, hybridoma supernatant 1:2000
T5 construct: Commercial drug product; also called non-PASylated protein version

hu4D5-P/A #1(200) = target: T6, hu4D5-P/A #1(200); assay: MAb capture ELISA, hybridoma supernatant on anti-mouse IgG Fc, antigen titrated
T6 construct: Detected with anti-human kappa light chain antibody in the capture ELISA

P/A #1(200)-IL1Ra [5] = target: T3, P/A #1(200)-IL1Ra; assay: SPR, MAb from hybridoma supernatant captured by anti-mouse antibody, antigen as analyte, bivalent analyte model
PAS #1(200)-IL1Ra [6] = target: T4, PAS #1(200)-IL1Ra; assay: as above
P/A #1 sequence = target: T7, P/A #1 sequence; assay: ELISA and SPR with Fabs
T7 construct: in sentences on specificity it stands for P/A #1 polypeptides in general
T7 peptide: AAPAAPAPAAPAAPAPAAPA

PAS #1(600)-Leptin [7] = target: T2, PAS #1(600)-Leptin; assay: ELISA, Fab titrated on coated PAS#1(600)-Leptin
[8] = target: T8, recombinant Galectin-3 carrying a C173T mutation and a C-terminal Strep-tag II (Homo sapiens (Human), UniProt P17931 2-250); assay: SPR, PAS-Fab captured by MAb 1.1, Galectin-3 as analyte, single cycle kinetics, 1:1 Langmuir model
T8 construct: the wording would also allow that it is the Strep-tag II alone

APSA(200)-IL1Ra [9] = target: T9, APSA(200)-IL1Ra; assay: ELISA, antigen coated, Fab titrated
T9 construct: Fusion protein produced in E. coli; Labelled with DIG-NHS in the MAb capture ELISA

APSA(200)-TrxA = target: T10, APSA(200)-TrxA; assay: SPR, biotinylated antigen on CAPture chip, Fab as analyte, 1:1 model
T10 construct: Biotinylated and immobilised on a biotin CAPture chip; also called thioredoxinA-APSA(200)

hu4D5-PAS #1(200) = target: T11, hu4D5-PAS #1(200); assay: MAb capture ELISA, hybridoma supernatant on anti-mouse IgG Fc, antigen titrated
T11 construct: Detected with anti-human kappa light chain antibody in the capture ELISA

APSA(200)-IL1Ra [10] = target: T9, APSA(200)-IL1Ra; assay: MAb capture ELISA, hybridoma supernatant on anti-mouse IgG Fc, DIG-labelled antigen titrated
APSA(200)-IL1Ra [11] = target: T9, APSA(200)-IL1Ra; assay: SPR, MAb from hybridoma supernatant captured by anti-mouse antibody, antigen as analyte, bivalent analyte model

T8 sequence (P17931 other isoform, or with tags, fused parts or gaps C173T C173T limits assumed): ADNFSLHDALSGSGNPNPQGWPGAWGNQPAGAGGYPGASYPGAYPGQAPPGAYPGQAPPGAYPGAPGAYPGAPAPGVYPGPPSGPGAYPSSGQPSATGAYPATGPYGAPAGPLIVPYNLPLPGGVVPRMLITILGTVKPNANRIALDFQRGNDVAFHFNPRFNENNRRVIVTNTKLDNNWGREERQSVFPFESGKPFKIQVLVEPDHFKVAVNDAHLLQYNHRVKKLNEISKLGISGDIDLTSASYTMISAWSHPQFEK
T4 sequence (chain, as listed by the source limits assumed): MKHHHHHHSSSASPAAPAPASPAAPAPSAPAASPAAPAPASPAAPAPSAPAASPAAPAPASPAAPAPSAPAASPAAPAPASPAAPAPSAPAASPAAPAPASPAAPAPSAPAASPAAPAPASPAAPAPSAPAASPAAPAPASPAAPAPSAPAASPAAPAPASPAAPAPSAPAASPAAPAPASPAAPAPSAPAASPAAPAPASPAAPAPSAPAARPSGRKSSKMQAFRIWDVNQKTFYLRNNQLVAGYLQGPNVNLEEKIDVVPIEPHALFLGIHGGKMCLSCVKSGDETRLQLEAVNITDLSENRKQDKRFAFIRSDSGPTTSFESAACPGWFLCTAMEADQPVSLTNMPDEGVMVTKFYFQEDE
T5 sequence (P18510 26-177 limits assumed): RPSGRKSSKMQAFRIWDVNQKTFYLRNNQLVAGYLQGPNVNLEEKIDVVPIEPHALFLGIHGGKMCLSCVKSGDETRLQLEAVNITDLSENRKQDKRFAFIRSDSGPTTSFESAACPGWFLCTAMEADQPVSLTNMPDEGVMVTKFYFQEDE
Chain of IL1Ra-PAS#1(800) (chain, as listed by the source): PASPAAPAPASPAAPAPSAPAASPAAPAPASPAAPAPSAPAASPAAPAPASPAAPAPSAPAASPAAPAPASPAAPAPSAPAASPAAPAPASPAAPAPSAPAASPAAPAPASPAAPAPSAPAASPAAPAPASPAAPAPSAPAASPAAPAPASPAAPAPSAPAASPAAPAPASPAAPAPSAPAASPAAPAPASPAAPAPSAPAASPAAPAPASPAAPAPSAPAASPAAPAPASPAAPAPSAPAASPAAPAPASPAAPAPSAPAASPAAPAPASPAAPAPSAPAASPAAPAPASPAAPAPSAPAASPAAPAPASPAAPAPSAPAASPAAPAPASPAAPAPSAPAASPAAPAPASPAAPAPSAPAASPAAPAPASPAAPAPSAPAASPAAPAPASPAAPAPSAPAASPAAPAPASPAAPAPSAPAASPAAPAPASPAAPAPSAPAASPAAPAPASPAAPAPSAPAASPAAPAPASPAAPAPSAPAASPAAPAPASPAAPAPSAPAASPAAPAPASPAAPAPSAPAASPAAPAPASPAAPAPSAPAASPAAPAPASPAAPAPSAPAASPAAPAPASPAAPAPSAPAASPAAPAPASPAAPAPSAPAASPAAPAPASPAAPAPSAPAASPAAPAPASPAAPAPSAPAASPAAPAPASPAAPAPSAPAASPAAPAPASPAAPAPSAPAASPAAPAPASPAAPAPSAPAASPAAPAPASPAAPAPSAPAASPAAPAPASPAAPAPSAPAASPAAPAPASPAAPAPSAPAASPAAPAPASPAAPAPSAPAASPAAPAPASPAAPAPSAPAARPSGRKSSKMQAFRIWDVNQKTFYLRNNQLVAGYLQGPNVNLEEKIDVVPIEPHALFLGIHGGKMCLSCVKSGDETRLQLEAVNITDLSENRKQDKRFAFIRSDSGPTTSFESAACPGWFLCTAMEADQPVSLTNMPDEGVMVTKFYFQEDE
Chain of P/A#1(600)-GMCSF (fusion protein, as listed by the source): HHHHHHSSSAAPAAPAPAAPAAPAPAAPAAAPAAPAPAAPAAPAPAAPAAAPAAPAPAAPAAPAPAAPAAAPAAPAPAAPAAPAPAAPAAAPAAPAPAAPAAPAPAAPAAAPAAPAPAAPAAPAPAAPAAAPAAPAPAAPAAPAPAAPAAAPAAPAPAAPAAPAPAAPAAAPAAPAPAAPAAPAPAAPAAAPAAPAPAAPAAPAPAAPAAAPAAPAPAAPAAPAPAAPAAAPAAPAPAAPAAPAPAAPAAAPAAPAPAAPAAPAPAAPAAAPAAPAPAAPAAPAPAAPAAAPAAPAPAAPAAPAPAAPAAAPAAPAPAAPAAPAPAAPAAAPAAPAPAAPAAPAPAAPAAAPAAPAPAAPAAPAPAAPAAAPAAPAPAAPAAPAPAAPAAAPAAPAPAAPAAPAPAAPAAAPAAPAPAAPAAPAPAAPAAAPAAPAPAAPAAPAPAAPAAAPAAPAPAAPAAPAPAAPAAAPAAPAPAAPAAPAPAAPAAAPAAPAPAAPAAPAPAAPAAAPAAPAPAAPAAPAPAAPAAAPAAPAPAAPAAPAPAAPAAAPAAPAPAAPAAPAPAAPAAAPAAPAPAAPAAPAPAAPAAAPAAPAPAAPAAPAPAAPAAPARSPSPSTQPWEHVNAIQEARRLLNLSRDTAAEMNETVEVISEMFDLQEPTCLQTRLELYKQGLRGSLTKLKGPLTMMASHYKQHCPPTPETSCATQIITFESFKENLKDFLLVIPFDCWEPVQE

B1: Fab fragment of Anti-PA(S) MAb 2.1 (Fab, V domains shown)
VH: QVTLKESGPGILQPSQTLSLTCSFSGFSLSTYDMGVGWIRQPSGKGLEWLANIWWNDNKYYNSALKSRLTISKDTSNNQVFLKISSVDATDTATYYCAQMRDNYGVWFAFWGQGTLVTVSA
VL: DIVMSQSPSSLAVSVGEKVTMSCKSSQSLFYSNREKNYLAWYQQKPGQSPKLLIYWASTRESGVPDRFTGSGSGTDFTLTISNVKAEDLAVYYCQQYYNYPTFGAGTKLELKR
notes: also called Anti-PA(S) MAb 2.1 Fab; anti-P/A #1 Fab
Kd (P/A #1(600) polypeptide): 2 nM
Kd (PAS #1(600)-Leptin [1]): 2.2 nM
Kd (P/A #1(200)-IL1Ra [2]): 648 nM
Kd (PAS #1(200)-IL1Ra [3]): 4.4 nM
EC50 (read off the curve) (IL1Ra-PAS#1(800)): ~2 nM
EC50 (read off the curve) (P/A#1(600)-GMCSF): ~1 nM
EC50 (read off the curve) (PAS #1(600)-Leptin [4]): ~2 nM

B2: Fab fragment of Anti-PA(S) MAb 2.2 (Fab, V domains shown)
VH: QVTLKESGPGILQPSQTLSLTCSFSGFSLNTYGMGVGWIRQPSGKGLEWLANIWWTDDKYYNSVLKSRLTISKDTFNNQVFLKISSVDTADTATYYCAQLAYHDNPWFAYWGQGTLVTVSA
VL: DIVMSQSPSSLAVSVGEKVTLSCKSSQSLLYSNNQKNYLAWYQQKPGQSPKLLIYWASTRESGVPDRFTGSGSGTDFTLTISSVKAEDLAVYYCQQYYNYPTFGGGTKLEIKR
notes: also called Anti-PA(S) MAb 2.2 Fab; anti-P/A #1 MAb 2.2 Fab
Kd (P/A #1(600) polypeptide): 8 nM
Kd (P/A #1(200)-IL1Ra [2]): 7000 nM

B3: Anti-PA(S) MAb 2.2 (antibody, V domains shown)
VH: QVTLKESGPGILQPSQTLSLTCSFSGFSLNTYGMGVGWIRQPSGKGLEWLANIWWTDDKYYNSVLKSRLTISKDTFNNQVFLKISSVDTADTATYYCAQLAYHDNPWFAYWGQGTLVTVSA
VL: DIVMSQSPSSLAVSVGEKVTLSCKSSQSLLYSNNQKNYLAWYQQKPGQSPKLLIYWASTRESGVPDRFTGSGSGTDFTLTISSVKAEDLAVYYCQQYYNYPTFGGGTKLEIKR
notes: Mouse monoclonal IgG from hybridoma (culture supernatant); also called 3F3E2
binding result (IL1Ra (Kineret/Anakinra)): no binding
Kd (hu4D5-P/A #1(200)): 69 nM
Kd (P/A #1(200)-IL1Ra [5]): 1.1 nM
Kd (PAS #1(200)-IL1Ra [6]): 22 nM

B4: Fab fragment of Anti-PA(S) MAb 1.1 (Fab, V domains shown)
VH: QVQLKESGPGLVAPSQSLSITCTVSGFSLTGYGVNWVRQPPGKGLEWLGMIWGDGITDYNSALKSRLSISKDNSKSQVFLKMNSLQTDDTARYYCARDYYGRRYYAMDYWGQGTSVTVSS
VL: DIVLTQSPASLAVSLGQRATISCRASKSVSSSGYNYMFWYQQKPGQPPKLLIYLASNLESGVPDRFWGSGSGTDFTLNIHPVEEEDAATYYCQHSRELPLTFGAGTKLELKR
notes: flanking restriction sites were introduced for subcloning; also called Anti-PA(S) MAb 1.1 Fab; anti-PAS #1 Fab
binding result (P/A #1 sequence): no binding
Kd (PAS #1(600)-Leptin [1]): 23 nM
EC50 (read off the curve) (PAS #1(600)-Leptin [7]): ~10 nM
Kd (PAS #1(200)-IL1Ra [3]): 8800 nM

B5: anti-Galectin-PAS(200) Fab fragment (Fab)
chain 1: QIQLVQSGAEVKKPGESLKISCKVSGYTFTDYAIHWVRQMPGKGLKWMGWINTYTGKPIYADDFKGQVIISLDKSINTAYLQWSSLKASDTAIYYCARGTMMASLDYWGQGTTVTVSSASTKGPSVFPLAPSSKSTSGGTAALGCLVKDYFPEPVTVSWNSGALTSGVHTFPAVLQSSGLYSLSSVVTVPSSSLGTQTYICNVNHKPSNTKVDKKVEPKSCHHHHHH
chain 2: DVVMTQSPSSLSASVGDRVTITCKSSQSLVHSDGKTYLSWIQQKPGKAPKGLIYLVSKLDSGVPSRFSGSGSETDFTLTISSLQPEDSATYYCWQATHFPLTFGPGTKLEIKRTVAAPSVFIFPPSDEQLKSGTASVVCLLNNFYPREAKVQWKVDNALQSGNSQESVTEQDSKDSTYSLSSTLTLSKADYEKHKVYACEVTHQGLSSPVTKSFNRGECASPAAPAPASPAAPAPSAPAASPAAPAPASPAAPAPSAPAASPAAPAPASPAAPAPSAPAASPAAPAPASPAAPAPSAPAASPAAPAPASPAAPAPSAPAASPAAPAPASPAAPAPSAPAASPAAPAPASPAAPAPSAPAASPAAPAPASPAAPAPSAPAASPAAPAPASPAAPAPSAPAASPAAPAPASPAAPAPSAPAA
notes: also called PASylated humanized anti-Galectin Fab fragment; PAS-Fab
Kd [8]: 0.0038 nM
koff [8]: 3e-05 s⁻¹
kon [8]: 7.9e+06 M⁻¹ s⁻¹

B6: Fab fragment of Anti-PA(S) MAb 3.2 (Fab, V domains shown)
VH: QVQLQQSGAELVRPGASVKLSCKALGYTFTDYEMFWVKQTPVHGLECIGTIHPGSGGTAYNQKFKGKATLTADKSSSTAYMELSSLTSEDSAVYYCTRNDRGSWGQGTTLTVSS
VL: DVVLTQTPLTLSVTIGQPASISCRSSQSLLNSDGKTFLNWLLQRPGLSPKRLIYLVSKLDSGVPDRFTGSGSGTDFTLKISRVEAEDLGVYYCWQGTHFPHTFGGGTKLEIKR
notes: also called Anti-PA(S) MAb 3.2 Fab; anti-APSA antibody fragment
Kd (P/A #1(600) polypeptide): 48 nM
Kd (PAS #1(600)-Leptin [1]): 311 nM
Kd (APSA(200)-IL1Ra [9]): 1.6 nM
Kd (P/A #1(200)-IL1Ra [2]): 446 nM
Kd (APSA(200)-TrxA): 137 nM

B7: Anti-PA(S) MAb 3.2 (antibody, V domains shown)
VH: QVQLQQSGAELVRPGASVKLSCKALGYTFTDYEMFWVKQTPVHGLECIGTIHPGSGGTAYNQKFKGKATLTADKSSSTAYMELSSLTSEDSAVYYCTRNDRGSWGQGTTLTVSS
VL: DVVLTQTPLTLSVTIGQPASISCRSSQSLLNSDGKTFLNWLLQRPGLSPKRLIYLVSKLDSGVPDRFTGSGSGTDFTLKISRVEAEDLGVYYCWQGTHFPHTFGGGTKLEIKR
notes: Mouse monoclonal IgG from hybridoma (culture supernatant)
binding result (IL1Ra (Kineret/Anakinra)): no binding
Kd (hu4D5-P/A #1(200)): 0.4 nM
Kd (hu4D5-PAS #1(200)): 294 nM
Kd (APSA(200)-IL1Ra [10]): 0.251 nM
Kd (P/A #1(200)-IL1Ra [5]): 20 nM
Kd (APSA(200)-IL1Ra [11]): 0.108 nM
